From patent publication US20190016826A1 (Genentech, published 2019) come the findings set out here.

Experiment [1] deals with T1, Full length murine HtrA1 (MuHtrA1) (P24-P480), N-terminal His6 tag (murine, UniProt Q9R118 24-480).
T1 construct: Expressed in insect cells
As to the kind of experiment: SPR (BIAcore T100), single-cycle kinetics, biotinylated murine HtrA1 captured on streptavidin, Fab in solution. An excerpt: To determine the binding affinity of HtrA1 antibodies by single cycle kinetics, Surface Plasmon Resonance (SRP) measurement with a BIAcore™ T100 instrument was used. Briefly, a series S sensor chip CM5 was activated with EDC and NHS reagents according to the supplier's instructions, and streptavidin (Pierce) was coupled to achieve approximately 2000 response units (RU), followed by blocking un-reacted groups with 1M ethanolamine.
For kinetics measurements, biotinylated human or murine HtrA1 was first injected at 10 ul/min flow rate to capture approximately 100 RU at 3 different flow cells (FC), except for FC1 (reference), and then 5-fold serial dilutions of anti-HtrA1 Fab in HBS-P buffer (0.01M HEPES pH 7.4, 0.15M NaCl, 0.005% surfactant P20) from low (0.48 nM) to high (300 nM) [5 points] were injected (flow rate: 30 μl/min) one after the other in the same cycle with no regeneration between injections. The sensorgram was recorded and subject to reference and buffer subtraction before evaluation by BIAcore™ T100 Evaluation Software (version 2.0). Association rates (km) and dissociation rates (koff) were calculated using a simple one-to-one Langmuir binding model. The equilibrium dissociation constant (Kd) was calculated as the ratio koff/kₒₙ.

Experiment [2] concerns the target T2, N224A.
T2 construct: also called HuHtrA1_PD(N224A)
As to the kind of experiment: ELISA on plate-coated HuHtrA1_PD mutants (Example 7); column head on the sheet reads YW505.94 Fab, legend paragraph 70 says IgG94. Here is the method:
(§1) The mutants were expressed in E. coli and the trimers purified by size exclusion chromatography as described in Example 2. Binding was determined using an ELISA assay, which was conducted using a MAXISORP™ microtiter plate coated with HuHtrA1_PD mutants at 2 μg/ml in PBS for 1 h, followed by blocking with PBST buffer (0.5% BSA and 0.05% Tween 20 in PBS) for 1 h at room temperature. […] The plates were washed with PBT buffer (0.05% Tween 20 in PBS), and HRP-conjugated goat anti-human IgG (H+L) (Invitrogen) was added (1:5000 in PBST buffer) and incubated for 1 h. The plates were washed with PBT buffer and developed by adding tetramethylbenzidine substrate (Kirkegaard and Perry Laboratories, Gaithersburg, Md.). The absorbance at 450 nm was plotted as a function of antibody concentration in solution to determine EC₅₀ values.
(§2) In trypsin-like serine proteases these loops are known to be part of the specificity determining region that interacts with substrates.

Experiment [3] concerns the target T3, E239A.
T3 construct: also called HuHtrA1_PD(E239A)
The description is as above. Here is the method: as §1, §2

Experiment [4] concerns the target T4, R227A.
T4 construct: also called HuHtrA1_PD(R227A)
Described as above. The protocol: as §1, §2

Experiment [5] has as its target T5, HuHtrA1_PD(V201A) (human, UniProt F1N152 168-386 (bovine entry)).
T5 construct: Alanine mutant of HuHtrA1_PD; also called HuHtrA1 mutant V201A; not shown: thrombin cleavage site
T5 chain: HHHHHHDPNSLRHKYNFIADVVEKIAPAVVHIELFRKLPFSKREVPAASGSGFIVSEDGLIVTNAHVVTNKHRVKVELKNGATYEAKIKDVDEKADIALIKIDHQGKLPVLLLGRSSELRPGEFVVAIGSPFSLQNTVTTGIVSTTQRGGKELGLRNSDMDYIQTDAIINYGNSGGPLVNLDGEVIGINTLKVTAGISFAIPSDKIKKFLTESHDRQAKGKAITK
The experiment is described as above. Here is the method:
as §1, §2

Experiment [6] has as its target T6, K248A.
T6 construct: also called HuHtrA1_PD(K248A)
Described as above. Here is the method: as §1, §2

Experiment [7] has as its target T7, HuHtrA1_PD(E247A) (human, UniProt F1N152 168-386 (bovine entry)).
T7 construct: Alanine mutant of HuHtrA1_PD; also called HuHtrA1 mutant E247A; not shown: thrombin cleavage site
T7 chain: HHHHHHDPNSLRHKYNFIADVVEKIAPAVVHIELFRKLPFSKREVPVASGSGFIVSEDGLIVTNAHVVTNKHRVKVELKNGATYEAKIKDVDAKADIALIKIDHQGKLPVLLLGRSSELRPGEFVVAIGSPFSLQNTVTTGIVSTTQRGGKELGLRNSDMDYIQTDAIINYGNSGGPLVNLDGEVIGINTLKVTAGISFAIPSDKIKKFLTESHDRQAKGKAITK
The description is as above. Here is the method:
as §1, §2

For experiment [8], the target named is T8, HuHtrA1_PD(K243A) (human, UniProt F1N152 168-386 (bovine entry)).
T8 construct: Alanine mutant of HuHtrA1_PD; also called HuHtrA1 mutant K243A; not shown: thrombin cleavage site
T8 chain: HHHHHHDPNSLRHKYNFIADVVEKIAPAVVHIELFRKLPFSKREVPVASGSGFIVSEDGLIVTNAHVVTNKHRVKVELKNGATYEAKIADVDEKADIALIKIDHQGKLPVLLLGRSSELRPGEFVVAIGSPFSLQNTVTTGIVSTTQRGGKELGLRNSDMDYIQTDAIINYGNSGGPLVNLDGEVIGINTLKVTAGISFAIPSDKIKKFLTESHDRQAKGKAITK
Described as above. The protocol:
as §1, §2

Experiment [9] addresses T9, D250A.
T9 construct: also called HuHtrA1_PD(D250A)
The description is as above. The protocol:
as §1, §2

The term Kd denotes the equilibrium constant for the complex coming apart. In general, koff refers to a measure of how fast the partners let go of each other. A high value points to fast dissociation. The kon is the second-order rate constant of association. Read a low kon as slower complex formation. The EC50 is the concentration at which the effect is half-maximal. The low end stands for a more potent agent, the high end for a less potent agent.

T1 sequence (Q9R118 other isoform, or with tags, fused parts or gaps): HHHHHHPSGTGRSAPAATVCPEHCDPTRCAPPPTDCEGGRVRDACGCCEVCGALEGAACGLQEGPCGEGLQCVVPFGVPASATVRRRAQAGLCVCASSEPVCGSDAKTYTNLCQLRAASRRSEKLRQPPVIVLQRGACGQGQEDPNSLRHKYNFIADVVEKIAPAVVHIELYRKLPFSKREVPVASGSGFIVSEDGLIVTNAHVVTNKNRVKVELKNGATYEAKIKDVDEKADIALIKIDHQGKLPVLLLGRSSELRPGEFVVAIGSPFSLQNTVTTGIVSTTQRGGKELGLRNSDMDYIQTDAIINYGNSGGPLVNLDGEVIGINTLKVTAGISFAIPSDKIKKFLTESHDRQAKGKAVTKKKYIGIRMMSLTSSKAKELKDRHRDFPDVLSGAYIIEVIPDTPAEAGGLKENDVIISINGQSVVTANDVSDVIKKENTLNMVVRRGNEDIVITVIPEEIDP

B1: Fab94 (anti-HtrA1 antibody YW505.94, Fab format) (Fab, V domains shown)
VH: EVQLVESGGGLVQPGGSLRLSCAASGFNISGYYIHWVRQAPGKGLEWVGWIDPYGGDTNYADSVKGRFTISADTSKNTAYLQMNSLRAEDTAVYYCARGTFLTSWGHYFDYWGQGT
VL: DIQMTQSPSSLSASVGDRVTITCRASQDVSTAVAWYQQKPGKAPKLLIYSASFLYSGVPSRFSGSGSGTDFTLTISSLQPEDFATYYCQQSYTTPPTFGQGTKVEIKR
In [1], B1 showed a Kd of 28.9 nM. Also, in [1], the koff was determined as 0.0129 s⁻¹. The kon in experiment [1] was found to be 447000 M⁻¹ s⁻¹. The EC50 is 135 nM in [2]; 5.4 nM in [3]; 25.9 nM in [4]; 112 nM in experiment [5]; 196 nM in [6]; 41.7 nM in [7]. In addition, the EC50 in [8] worked out at 64.9 nM; in experiment [9] it was 9.4 nM. Moreover, the “Relative to WT EC50 Fold Decrease” value was determined as 24 fold in experiment [2]; 0.9 fold in experiment [3]; 4.6 fold in experiment [4]; 20 fold in [5]; 35 fold in [6]; 7.4 fold in experiment [7]. Further, the “Relative to WT EC50 Fold Decrease” value amounted to 11.6 fold in experiment [8] and 1.7 fold in [9].
